Consider one substance from publication PMC11797550.

The target of assay [1] is USP1 (ultraspiracle), endogenous in the larval fat body. The experiment in a line: Co-IP (anti-IDE antibody) with western blot band quantification. The note with it: fat body of larvae; 10% gel in SDS-PAGE; three replicates; parent: est. 0.49; read off a plot. In general terms: A western blot detects proteins with antibodies after separation by electrophoresis.
The target in assay [2] is IGF-2-like, endogenous in the larval fat body. The description is as above. The settings on record: fat body of larvae; 10% gel in SDS-PAGE; three replicates; parent: est. 0.18; read off a plot.

Turning to “IDE, wild type, endogenous in the larval fat body K179R”, the response in assay [1] was 0.16 USP1/ACTB. In assay [2], the response (IGF-2-like/ACTB) turned out to be 0.46.
